Where no end group is shown, it is not given here. The star is where a group is joined. DOTA = O=C(O)CN1CCN(CC(=O)O)CCN(CC(=O)*)CCN(CC(=O)O)CC1; Ahx = NCCCCCC(=O)O

The target in assay [1] is guanylyl cyclase C (GCC) (human), P25092. As to the kind of experiment: in vivo competitive binding against [68Ga]MLN6907 DP in tumor models with different GCC expression levels; semi-mechanistic model.
Assay [2] has the same target. As to the kind of experiment: competitive binding against [111In]MLN6907 on HEK-293 GCC Clone 2 cells; DSP without chelation reaction conditions.
Assay [3] has the same target. The assay is described as follows: in vitro competitive binding assay with HEK-293 GCC clone 2 cells (Indium-111 used as surrogate label; FIG. 13).
Assay [4] shares this target. As to the kind of experiment: competitive binding against [111In]MLN6907 on HEK-293 GCC Clone 2 cells; DSP treated with chelation reaction conditions (acetone:HCl, about 100 C, 10 min).
For assay [5] the target is unchanged. The assay is described as follows: in vivo competitive binding study with [68Ga]MLN6907 in HEK-293 GCC Clone 2 tumor-bearing mice, model-derived.

Chain of guanylyl cyclase C (GCC) (human), P25092 (P25092 24-1073 limits assumed): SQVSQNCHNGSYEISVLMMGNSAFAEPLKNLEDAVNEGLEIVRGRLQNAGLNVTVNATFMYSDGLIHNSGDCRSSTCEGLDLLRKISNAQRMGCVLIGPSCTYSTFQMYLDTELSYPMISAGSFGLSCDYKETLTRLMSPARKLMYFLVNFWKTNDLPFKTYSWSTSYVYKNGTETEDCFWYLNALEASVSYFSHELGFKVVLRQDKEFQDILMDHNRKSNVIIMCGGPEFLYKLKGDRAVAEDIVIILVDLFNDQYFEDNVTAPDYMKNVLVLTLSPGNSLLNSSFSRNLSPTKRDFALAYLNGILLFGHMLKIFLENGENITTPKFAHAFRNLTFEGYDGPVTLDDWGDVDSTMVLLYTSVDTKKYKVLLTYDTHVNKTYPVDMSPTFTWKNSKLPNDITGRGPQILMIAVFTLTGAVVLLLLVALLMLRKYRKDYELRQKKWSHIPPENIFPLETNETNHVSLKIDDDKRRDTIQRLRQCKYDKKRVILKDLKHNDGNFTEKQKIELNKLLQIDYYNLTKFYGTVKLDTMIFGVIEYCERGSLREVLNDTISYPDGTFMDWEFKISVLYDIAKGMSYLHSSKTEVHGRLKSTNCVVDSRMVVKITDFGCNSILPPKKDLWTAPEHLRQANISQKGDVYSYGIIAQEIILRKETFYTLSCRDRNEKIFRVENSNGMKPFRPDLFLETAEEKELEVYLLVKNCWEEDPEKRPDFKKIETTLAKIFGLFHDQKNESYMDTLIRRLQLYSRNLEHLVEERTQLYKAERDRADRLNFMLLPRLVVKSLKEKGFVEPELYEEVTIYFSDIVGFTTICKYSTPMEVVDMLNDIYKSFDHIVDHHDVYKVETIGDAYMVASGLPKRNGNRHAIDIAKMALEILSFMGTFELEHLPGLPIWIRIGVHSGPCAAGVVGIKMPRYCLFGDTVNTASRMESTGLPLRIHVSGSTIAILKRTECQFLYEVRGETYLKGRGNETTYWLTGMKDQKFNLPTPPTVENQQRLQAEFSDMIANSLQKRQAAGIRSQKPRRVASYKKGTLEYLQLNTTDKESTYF

Broadly, the EC50 is the concentration that produces a half-maximal response. Read a low EC50 as higher potency in that assay. Broadly, the IC50 is the midpoint of a concentration-inhibition curve. A low value points to inhibition by little substance. A word on the Kd: it is the constant that tells how readily two partners part at equilibrium. Higher therefore signals weaker binding. In assay [1], CCELCCNPACAGCY (modifications not checked) [MLN6907 DSP (drug substance precursor), Formula (VI): DOTA-Ahx-STp(5-18), not radiolabeled] yielded an EC50 of 97.1 to 5660 nM. Besides, the concentration for half-maximal inhibition (IC50) in assay [2] turned out to be 4.59 nM; in assay [4], 4.75 nM. This molecule also gave a Kd in assay [3] of 3.2 nM.

B1: [68Ga]MLN6907 DP (drug product), Formula (VIa) (peptide)
peptide: {DOTA-Ahx}-CCELCCNPACAGCY
modifications: ends and bridges not checked; also: 68Ga complexed by DOTA, cyclised (places not given here)
In the case of B1, the Bmax (antigen surface density, HEK-293 GCC Clone 2) in assay [5] was 14000.
